± gives the uncertainty stated by the source.

Protein stability index data for 25 sequences are collected here from the supplement of paper PMC9732359.

A short description of this data set: protein stability index of a GFP-peptide fusion (yeast GPS) (PSI 1-4); higher = more stable; sorted into four equal gates, so the index is relative within each strain. In outline: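 Sequencing reads from sorted gates were used to score each peptide. The library consisted of tiled 17-residue yeast protein peptides fused downstream of GFP on a Cherry-expressing plasmid, pooled and carried in yeast. Mid-log cultures in leucine-free medium were split into four equal gates by GFP/Cherry ratio, and each gate's plasmids were PCR-amplified and Illumina-sequenced. The protein stability index adds up, over all gates, the read frequency multiplied by the gate number.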

Turning to AVNWQDKQGWTPLFHAL [NAS6], the protein stability index runs as follows: (doa10∆) 2.07 ± 0.16; (pdr5∆) 2.1 ± 0.18; (san1∆) 2.4 ± 0.092.

In the case of ELIKNYITARIMAKRPF [FAS1], the protein stability index by setting is: (doa10∆) 2.93 ± 0.13; (pdr5∆) 2.58 ± 0.26; (san1∆) 3.03 ± 0.046; (ubr1∆) 2.78 ± 0.21.

Take MLSAHNIIESIANFSRA [YJR042W/NUP85]: the protein stability index was found to be 2.31 ± 0.074 (doa10∆), 2.43 ± 0.063 (pdr5∆), 2.87 ± 0.048 (san1∆) and 2.48 ± 0.036 (ubr1∆).

For the sequence GTYIQERNPTQRPQRRY [RPS10A], the protein stability index is, setting by setting: (doa10∆) 3.01 ± 0.051; (pdr5∆) 3.1 ± 0.041; (san1∆) 3.07 ± 0.034; (ubr1∆) 3.14 ± 0.032.

Consider KYKSNTNNMEKIIEDLR [SMC2], for which the protein stability index by setting is: (doa10∆) 3.21 ± 0.061; (pdr5∆) 3.23 ± 0.055; (san1∆) 3.23 ± 0.034; (ubr1∆) 3.2 ± 0.034.

As to IAAKLINSGLYSVLLES [YML103C/NUP188], the protein stability index reads like this: (doa10∆) 2.54 ± 0.099; (pdr5∆) 2.08 ± 0.099; (san1∆) 2.7 ± 0.076; (ubr1∆) 2.67 ± 0.095.

In the case of ELVVFLPALCKKMGVPY [RPL8A], the protein stability index runs as follows: (doa10∆) 2.92 ± 0.098; (pdr5∆) 2.83 ± 0.11; (san1∆) 2.78 ± 0.14; (ubr1∆) 3 ± 0.061.

Take TTVIGIRGSDQAIPKFQ [RPN2]: the protein stability index (pdr5∆) was found to be 2.74 ± 0.23.

VKIGKFIPHGLKRRQVI [SRB8] showed a protein stability index (doa10∆) of 2.48 ± 0.1, a protein stability index (pdr5∆) of 2.23 ± 0.075, a protein stability index (san1∆) of 3.11 ± 0.06 and a protein stability index (ubr1∆) of 1.95 ± 0.078.

In the case of QHTSFQEAVNSLKGYKI [CSI1], the protein stability index (doa10∆) was found to be 3.15 ± 0.1, the protein stability index (pdr5∆) was determined as 3.21 ± 0.065, the protein stability index (san1∆) was found to be 3.35 ± 0.048 and the protein stability index (ubr1∆) came to 3.39 ± 0.067.

Sequence EMTLPTSPLYMDPGAPL [SSN2] displayed a protein stability index (doa10∆) of 3.07 ± 0.11, a protein stability index (pdr5∆) of 2.8 ± 0.11, a protein stability index (san1∆) of 2.8 ± 0.15 and a protein stability index (ubr1∆) of 2.81 ± 0.11.

As to ADVSIKSILQEIRRSLS [POP5], the protein stability index reads like this: (doa10∆) 1.59 ± 0.08; (pdr5∆) 2.66 ± 0.083; (san1∆) 2.44 ± 0.14; (ubr1∆) 1.32 ± 0.06.

For the sequence PRRDGERKRKSVRGAIV [RPS6A], the protein stability index came out at 3.16 ± 0.099 (doa10∆), 3.29 ± 0.075 (pdr5∆), 3.33 ± 0.072 (san1∆) and 3.05 ± 0.087 (ubr1∆).

For the sequence VFYRMQQLRRALPDVVV [RPO31], the protein stability index reads like this: (doa10∆) 1.83 ± 0.038; (pdr5∆) 1.93 ± 0.035; (san1∆) 1.82 ± 0.074; (ubr1∆) 1.99 ± 0.047.

TIKISTNDDSIKNLTVQ [RGR1] yielded a protein stability index (doa10∆) of 2.88 ± 0.13, a protein stability index (pdr5∆) of 3.05 ± 0.1, a protein stability index (san1∆) of 2.9 ± 0.074 and a protein stability index (ubr1∆) of 2.96 ± 0.14.

On to LTNQQPKNLSTPSTSSN [CSE2], for which the protein stability index was found to be 2.94 ± 0.067 (doa10∆), 2.84 ± 0.068 (pdr5∆), 2.67 ± 0.066 (san1∆) and 2.79 ± 0.059 (ubr1∆).

As to SENHTESDAPPKSTAPI [YOR098C/NUP1], the protein stability index is, setting by setting: (doa10∆) 2.75 ± 0.058; (pdr5∆) 2.24 ± 0.054; (san1∆) 2.51 ± 0.058; (ubr1∆) 2.47 ± 0.06.

With KDSVTECSKDMKEDGLS [SIR4], the protein stability index by setting is: (doa10∆) 3.21 ± 0.12; (pdr5∆) 3.45 ± 0.066; (san1∆) 3.23 ± 0.07; (ubr1∆) 3.32 ± 0.049.

As to CRVCSSHTGLIRKYGLN [RPS29A], the protein stability index (doa10∆) is 1.5 ± 0.13, the protein stability index (pdr5∆) came to 1.53 ± 0.1, the protein stability index (san1∆) was found to be 1.48 ± 0.15 and the protein stability index (ubr1∆) stood at 1.59 ± 0.069.

As to WGHPTRMLLNLCKSATT [BRR2], the protein stability index was 1.47 ± 0.047 (doa10∆), 1.55 ± 0.046 (pdr5∆), 1.75 ± 0.066 (san1∆) and 1.35 ± 0.046 (ubr1∆).

Consider VRKELRGRAVVLMGKNT [RPP0], for which the protein stability index is 1.71 ± 0.067 (doa10∆), 1.83 ± 0.094 (pdr5∆), 2.12 ± 0.15 (san1∆) and 2.08 ± 0.057 (ubr1∆).

As for YRLMIKRLNFSFVGDYM [GRR1], the protein stability index by setting is: (doa10∆) 2 ± 0.065; (pdr5∆) 1.41 ± 0.052; (san1∆) 1.53 ± 0.095; (ubr1∆) 1.51 ± 0.054.

In the case of KSHVLLATPVQFELLSR [BRR2], the protein stability index was 2.31 ± 0.057 (doa10∆), 1.58 ± 0.052 (pdr5∆), 2.02 ± 0.066 (san1∆) and 2.08 ± 0.049 (ubr1∆).

In the case of EGNAQLVAIFGGQGNTD [FAS1], the protein stability index reads like this: (doa10∆) 1.45 ± 0.067; (pdr5∆) 1.94 ± 0.094; (san1∆) 2.13 ± 0.13; (ubr1∆) 1.05 ± 0.091.

As for SSSKQQSRLFINELVLE [SMC4], the protein stability index reads like this: (doa10∆) 3.02 ± 0.14; (pdr5∆) 2.95 ± 0.1; (san1∆) 2.58 ± 0.16; (ubr1∆) 3.05 ± 0.085.
